Paper PMC3718817 (2013)

B1: Gal4AD-Sds22 [S. cerevisiae] / Gal4(1-147)-Glc7 [S. cerevisiae] (parent complex)
chain 1: MDKNSVNKDSEEKDERHKIEVVDDTNPDFITADSELTQDLPDDVEVIDLVHLKIKSLEDLNLYRFKNLKQLCLRQNLIESISEVEVLPHDKIVDLDFYDNKIKHISSNVNKLTKLTSLDLSFNKIKHIKNLENLTDLENLYFVQNSISKIENLSTLKSLKNLELGGNKVHSIEPDSFEGLSNLEEIWLGKNSIPRLINLHPLKNLKILSIQSNKLKKIENLEELTNLEELYLSHNFITKIEGLEKNLKLTTLDVTSNKITSLENLNHLSNLTDIWASFNKIDQSFESLGENLSALSRLETIYLEGNPIQLENKTSYRRKLTMNLPPSLQKIDATYIRG
chain 2: MDSQPVDVDNIIDRLLEVRGSKPGQQVDLEENEIRYLCSKARSIFIKQPILLELEAPIKICGDIHGQYYDLLRLFEYGGFPPESNYLFLGDYVDRGKQSLETICLLLAYKIKYPENFFILRGNHECASINRIYGFYDECKRRYNIKLWKTFTDCFNCLPIAAIIDEKIFCMHGGLSPDLNSMEQIRRVMRPTDIPDVGLLCDLLWSDPDKDIVGWSENDRGVSFTFGPDVVNRFLQKQDMELICRAHQVVEDGYEFFSKRQLVTLFSAPNYCGEFDNAGAMMSVDESLLCSFQILKPAQKSLPRQAGGRKKK

Variants of: B1
Assay: two-hybrid assay (β-galactosidase activity); three independent PJ69-4A transformants; parent: 23; read off a plot

| response | Variant |
| --- | --- |
| ~13 | chain 1 MDKNSVNKDSEEKDERHKIEVVDDTNPDFITADSELTQDLPDDVEVIDLVHLKIKSLEDLNLYRLKNLKQLCLRQNLIESISEVEVLPHDKIVDLDFYDNKIKHISSNVNKLTKLTSLDLSFNKIKHIKNLENLTDLENLHFVQNSISKIENLSTLKSLKNLELGGNKVHSIEPDSFEGLSNLEEIWLGKNSIPRLINLHPLKNLKILSTQSNKLKKIENLEELTNLEELYLSHNFITKIEGLEKNLKLTTLDVTSNKITSLENLNHLSNLTDIWASFNKIDQSFESLGENLSALSRLETIYLEGNPIQLENKTSYRRKLTMNLPPSLQKIDATYIRG [chain 1 F65L, chain 1 Y141H, chain 1 I210T] |
| ~6 | chain 1 MDKNSVNKDSEEKDERHKIEVVDDTNPDFITADSELTQDLPDDVEVIDLVHLKIKSLEDLNLYRFKNLKQLCLRQNLIGSISEVEVLPHDKIVDLDFYDNKIKHISSNVNKLTKLTSLDLSFNKIKHIKNLENLTDLENLYFVQNSISKIENLSTLKSQKNLELGGNKVHSIEPDSFEGLSNLEEIWLGKNSIPRLINLHPLKNLKILSIQSNKLKKIENLEELTNLEELYLSHNFITKIEGLEKNLKLTTLDVTSNKITSLENLNHLSNLTDIWASFNKIDQSFESLGENLSAISRLETIYLEGNPIQLENKTSYRRKLTMNLPPSLQKIDATYIRG [chain 1 E79G, chain 1 L159Q, chain 1 L295I] |
| ~11 | chain 1 MDKNSVNKDSEEKDERHKIEVVDDTNPDFITADSELTQDLPDDVEVIDLVHLKIKSLEDLNLYRFKNLKQLCLRQNLIESISEVEVLPHDKIVDLDFYDNKIKHISSNVNKLTKLTSLDLSFNKIKHIKNLENLTDLENLYFVQNSISKIENLSTLKSLKNLELGGNKVHSIEPDSFEGLSNLEEIWLGKNSIPRLINLHPLKNLKILSIQSNKLKKIENLEELTNLEELYLSHNFITKIEGLEKNLKLTTLDVTSNKITSLENLNHLSNLTDIAASFNKIDQSFESLGENLSALSRLETIYLEGNPIQLENKTSYRRKLTMNLPPSLQKIDATYIRG [chain 1 W275A] |
| ~19 | chain 1 MDKNSVNKDSEEKDERHKIEVVDDTNPDFITADSELTQDLPDDVEVIDLVHLKIKSLEDLNLYRFKNLKQLCLRQNLIESISEVEVLPHDKIVDLDFYDNKIKHISSNVNKLTKLTSLDLSFNKIKHIKNLENLTDLENLYFVQNSISKIENLSTLKSLKNLELGGNKVHSIEPDSFEGLSNLEEIWLGKNSIPRLINLHPLKNLKILSIQSNKLKKIENLEELTNLEELYLSHNFITKIEGLEKNLKLTTLDVTSNKITSLENLNHLSNLTAIWASFNKIDQSFESLGENLSALSRLETIYLEGNPIQLENKTSYRRKLTMNLPPSLQKIDATYIRG [chain 1 D273A] |
| ~11 | chain 1 MDKNSVNKDSEEKDERHKIEVVDDTNPDFITADSELTQDLPDDVEVIDLVHLKIKSLEDLNLYRFKNLKQLCLRQNLIESISEVEVLPHDKIVDLDFYDNKIKHISSNVNKLTKLTSLALSFNKIKHIKNLENLTDLENLYFVQNSISKIENLSTLKSLKNLELGGNKVHSIEPDSFEGLSNLEEIWLGKNSIPRLINLHPLKNLKILSIQSNKLKKIENLEELTNLEELYLSHNFITKIEGLEKNLKLTTLDVTSNKITSLENLNHLSNLTDIWASFNKIDQSFESLGENLSALSRLETIYLEGNPIQLENKTSYRRKLTMNLPPSLQKIDATYIRG [chain 1 D119A] |
